Results reported in patent US20130344053A1, “Methods of Modifying Insulin Signaling Using Biliverdin Reductase (BVR) and BVR Derived Peptides” (University of Rochester, priority 2010, published 2013).
Each block holds one molecule with its values, some of them ahead of it.

What was measured:
Assay type in all cases: biochemical
[1] = biological target: T1, insulin receptor kinase (IRK) (Homo sapiens, UniProt P06213); assay: BVR phosphorylation by the insulin receptor tyrosine kinase (IRK); conditions: for reduction of extent of BVR phosphorylation by IRK compared with wtBVR: tyrosine point mutant as IRK substrate, 2 h at 30° C.; for BVR phosphorylation by IRK (mutant as substrate): tyrosine point or double mutant as IRK substrate
T1 construct: GST-hBVR fusion protein and the 48 kDa cytoplasmic domain of the β-subunit of IRK; purchased Biomol International (Plymouth, Pa.)
Method: FIGS. 7A-B illustrate BVR as a substrate for insulin receptor kinase. […] 10 μg purified wtBVR was incubated in 100 μl kinase assay buffer (pH 8.0) containing 0.1 μg IRK, 10 μM ATP, and 20 μCi [^32P]-ATP at 25° C. up to 4 h. The reaction was terminated by the addition of Laemmli buffer at different points of time as indicated. Samples were separated using 8% SDS-PAGE gel and transferred onto PVDF filter, and phosphorylated protein bands were visualized by autoradiography. […] From left to right lane 1, wtBVR plus IRK in the presence of 50 mM EDTA (pH 8.0); lane 2, wtBVR plus IRK; lane 3, wtBVR in the absence of IRK. The reaction mixtures were subjected to SDS-PAGE electrophoresis and transferred onto a polyvinylidene fluoride (“PVDF”) filter. The blot was immuno-stained with anti-phosphotyrosine antibodies and ECL detection system was used to visualize phosphorylated tyrosines. […] In FIG. 8A the Y^198 residue of BVR is phosphorylated by IRK. Purified wtBVR and Y^198 mutant BVR were incubated with IRK at 30° C. for 2 h. Samples were subjected to SDS-PAGE electrophoresis and processed as described in FIG. 8B. FIG. 8B is a time course of Y^198 mutant BVR phosphorylation by IRK. A purified preparation of human BVR that carried Y^198 mutation was incubated with IRK for up to 3 h as described in FIG. 7A. Samples taken at the indicated time-points were analyzed for detection of phosphorylated proteins as above. […] Subsequently, samples were subjected to SDS-PAGE, stained with Coomassie blue and visualized bands were excised and used for measurement of radioactive content. The experiments were repeated three times. […] The indicated double mutants of BVR were used as substrates for IRK and analysis was carried out as in FIG. 8A. FIGS. 10A-B illustrate that autophosphorylation of BVR is an Mn^+2 dependant kinase reaction. […] The effects of different metal ions (30 mM MnCl2, 20 mM MgCl2, 20 mM CaCl2, 20 mM Zn acetate) and their combinations were analyzed as indicated in the text. […] The reactions were carried out in HEPES buffer (pH 8.0) in the presence of 20 mM MgCl2 as described in the Examples. Phosphorylation of BVR by IRK was examined using GST-hBVR fusion protein and the 48 kDa cytoplasmic domain of the β-subunit of IRK. BVR (5 μg) was incubated in 50 μl of IRK kinase buffer containing 50 mM HEPES (pH 8.0), 20 mM MgCl2, 1 mM DTT in the presence of 0.05 μg IRK and 10 μM ATP labeled with 10 μCi [γ-^32P]-ATP. The reaction was started with the addition of labeled ATP and incubated for 2-4 h. Reactions were terminated by addition of Laemmli sample buffer and boiled for 3 min. Samples were subjected to 8% SDS-PAGE and transferred to PVDF membranes for autoradiography.

BVR = biological target: T2, BVR (Homo sapiens, UniProt P53004, A154S/E160D/G155D); assay: Phosphorylation of IRS-1 peptides by BVR; conditions: peptide as substrate for BVR kinase
T2 construct: made in house; host or cells: E. coli (pGEX 4T-2/hBVR)
T2 sequence (P53004 3-296 A154S/G155D/E160D): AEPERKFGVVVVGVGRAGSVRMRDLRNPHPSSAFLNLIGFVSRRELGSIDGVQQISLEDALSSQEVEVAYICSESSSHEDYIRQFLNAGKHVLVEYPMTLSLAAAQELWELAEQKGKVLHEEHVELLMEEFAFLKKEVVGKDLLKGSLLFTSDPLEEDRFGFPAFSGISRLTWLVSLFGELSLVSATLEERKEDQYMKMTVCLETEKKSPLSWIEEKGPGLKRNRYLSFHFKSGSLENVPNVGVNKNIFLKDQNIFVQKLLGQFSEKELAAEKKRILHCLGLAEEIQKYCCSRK
Method: (§1) To detect autophosphorylation of BVR, GST-hBVR of wild type (wt) and mutant variants were incubated in 50 mM HEPES buffer (pH 8.4) in the presence of 30 mM MnCl2 and 1 mM DTT for 2 h at 30° C. The reaction was started with the addition of 10 μM ATP labeled with 10 μCi [γ-^32P]-ATP and was stopped with the addition of Laemmli sample buffer. Samples were boiled for 3 min and applied to a 8% SDS-PAGE gels, transferred to a PVDF membrane, and then visualized by autoradiography. To measure kinase activity, GST-BVR (5 μg) was incubated in 5 μl kinase buffer containing 50 mM HEPES buffer (pH 8.4), 20 mM MgCl2, 30 mM MnCl2, 1 mM DTT and 10 μM ATP labeled with 10 μCi [γ-^32P]-ATP in the presence of 5 μg substrates: IRS-1 or Raytide or poly glu/tyr (4:1) for 2 h at 30° C. The reaction was started with the addition of ATP and terminated by adding 120 μl 10% H3PO4. 100 μl aliquots were directly transferred to P81 Whatman filters which were subsequently washed extensively in 0.75% phosphoric acid at room temperature. Finally, the filters were submerged in acetone for 5 min, dried, and retained counts were measured using a Beckman LS 6500 liquid scintillation counter (Beckman Coulter, Fullerton, Calif.).
The following experiments were conducted to determine whether IRS is a substrate for serine kinase activity of BVR or its tyrosine kinase activity. […]

human BVR = assay: BVR autophosphorylation; conditions: pH 8.4, 30 mM MnCl2, 2 h at 30° C.
Method: In FIG. 9A, effect of tyrosine mutations of BVR on its autophosphorylation is shown. Human wtBVR and BVR with mutations in tyrosine were used in the experiment to determine autophosphorylation of BVR. The reactions were performed as described in the Examples. FIG. 9B is a graph showing that BVR tyrosine kinase activity was checked by incubating 5 μg purified BVR with 5 μg Raytide in 50 μl kinase buffer containing 10 μM labeled ATP for 2 h at 30° C. The aliquots of the reaction were transferred onto P81 Whatman filters and radioactivity due to phosphorylation was measured using a scintillation counter.
FIGS. 10A-B illustrate that autophosphorylation of BVR is an Mn^+2 dependant kinase reaction. […] The effects of different metal ions (30 mM MnCl2, 20 mM MgCl2, 20 mM CaCl2, 20 mM Zn acetate) and their combinations were analyzed as indicated in the text. […] Phosphorylation of wtBVR by IRK in the presence of tyrosine kinase inhibitor genestein (200 μM); DMSO was used as the vehicle for genestein and was included in the control reaction mixture. The reactions were carried out in HEPES buffer (pH 8.0) in the presence of 20 mM MgCl2 as described in the Examples.
as §1, with “To measure kinase activity, GST-BVR (5 μg) was incubated in 5 μl kinase buffer containing 50 mM HEPES buffer (pH 8.4), 20 mM MgCl2, 30 mM MnCl2, 1 mM DTT and 10 μM ATP labeled with 10 μCi [γ-^32P]-ATP in the presence of 5 μg substrates: IRS-1 or Raytide or poly glu/tyr (4:1) for 2 h at 30° C.” left out

T1 sequence (P06213 980-1382 limits assumed): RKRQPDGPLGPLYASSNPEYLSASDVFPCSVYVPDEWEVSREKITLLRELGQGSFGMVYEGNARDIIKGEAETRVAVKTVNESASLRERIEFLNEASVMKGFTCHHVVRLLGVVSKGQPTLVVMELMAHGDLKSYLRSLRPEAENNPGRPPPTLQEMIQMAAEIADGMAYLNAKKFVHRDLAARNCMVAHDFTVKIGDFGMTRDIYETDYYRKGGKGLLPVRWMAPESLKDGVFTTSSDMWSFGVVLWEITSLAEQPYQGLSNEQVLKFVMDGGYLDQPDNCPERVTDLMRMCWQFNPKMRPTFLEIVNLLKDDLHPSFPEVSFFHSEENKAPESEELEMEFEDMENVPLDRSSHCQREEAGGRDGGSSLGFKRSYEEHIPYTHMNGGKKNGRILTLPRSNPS

phosphorylation of IRS-1 peptide by BVR (BVR): 1198±230 cpm
Molecule: Arg-Thr-Glu-Ser^307-Ile-Thr-Ala-Thr-Ser^312-Pro-Ala-Ser^315-Met-Val-Gly-Gly-Lys-Pro (RTESITATSPASMVGGKP; Biliverdin reductase peptide) [second IRS-1 peptide (#2), IRS-1 peptide containing S^307, S^312, and S^315]

phosphorylation of IRS-1 peptide by BVR (BVR): 1049±78 cpm
Molecule: Lys-Lys-His-Ala-Asp-Asp-Gly-Ala-Met-Pro-Met-Ser^312-Pro-Gly-Val-Ala (KKHADDGAMPMSPGVA; Biliverdin reductase peptide) [mutant IRS-1 peptide (#1), mutant IRS-1 peptide without tyrosine, only S^616 maintained]

reduction of extent of BVR phosphorylation by IRK compared with wtBVR [1]: 40%
B1: Y^228: human BVR point mutant NRYLS to NRFLS (protein, UniProt P53004 3-296, looked up, variant Y228F)
Biliverdin reductase A: AEPERKFGVVVVGVGRAGSVRMRDLRNPHPSSAFLNLIGFVSRRELGSIDGVQQISLEDALSSQEVEVAYICSESSSHEDYIRQFLNAGKHVLVEYPMTLSLAAAQELWELAEQKGKVLHEEHVELLMEEFAFLKKEVVGKDLLKGSLLFTAGPLEEERFGFPAFSGISRLTWLVSLFGELSLVSATLEERKEDQYMKMTVCLETEKKSPLSWIEEKGPGLKRNRFLSFHFKSGSLENVPNVGVNKNIFLKDQNIFVQKLLGQFSEKELAAEKKRILHCLGLAEEIQKYCCSRK
autophosphorylation of BVR (mutants) (human BVR): did not result in significant changes in autophosphorylation of BVR

reduction of extent of BVR phosphorylation by IRK compared with wtBVR [1]: 49%
B4: Y^291: human BVR point mutant QKYCC to QKFCC (protein, UniProt P53004 3-296, looked up, variant Y291F)
Biliverdin reductase A: AEPERKFGVVVVGVGRAGSVRMRDLRNPHPSSAFLNLIGFVSRRELGSIDGVQQISLEDALSSQEVEVAYICSESSSHEDYIRQFLNAGKHVLVEYPMTLSLAAAQELWELAEQKGKVLHEEHVELLMEEFAFLKKEVVGKDLLKGSLLFTAGPLEEERFGFPAFSGISRLTWLVSLFGELSLVSATLEERKEDQYMKMTVCLETEKKSPLSWIEEKGPGLKRNRYLSFHFKSGSLENVPNVGVNKNIFLKDQNIFVQKLLGQFSEKELAAEKKRILHCLGLAEEIQKFCCSRK
autophosphorylation of BVR (mutants) (human BVR): did not result in significant changes in autophosphorylation of BVR

Second part, the molecule before the results:

Molecule: O=C(O)CN(CCN(CC(=O)O)CC(=O)O)CC(=O)O [EDTA, reference compound]
phosphorylation of BVR by IRK in presence of EDTA ([1]; 50 mM EDTA (pH 8.0), 30° C., 2 h): abolished phosphorylation of BVR by IRK

Molecule: O=c1c(-c2ccc(O)cc2)coc2cc(O)cc(O)c12 [Genestein, reference compound]
BVR phosphorylation mediated by IRK in presence of PTK inhibitor ([1]; genestein 200 μM, HEPES pH 8.0, 20 mM MgCl2): significantly inhibited BVR phosphorylation mediated by IRK

B2: Y^198 plus Y^228: human BVR double mutant DQFMK and NRFLS (protein, UniProt P53004 3-296, looked up, variant Y198F Y228F)
Biliverdin reductase A: AEPERKFGVVVVGVGRAGSVRMRDLRNPHPSSAFLNLIGFVSRRELGSIDGVQQISLEDALSSQEVEVAYICSESSSHEDYIRQFLNAGKHVLVEYPMTLSLAAAQELWELAEQKGKVLHEEHVELLMEEFAFLKKEVVGKDLLKGSLLFTAGPLEEERFGFPAFSGISRLTWLVSLFGELSLVSATLEERKEDQFMKMTVCLETEKKSPLSWIEEKGPGLKRNRFLSFHFKSGSLENVPNVGVNKNIFLKDQNIFVQKLLGQFSEKELAAEKKRILHCLGLAEEIQKYCCSRK
BVR phosphorylation by IRK (mutant as substrate) [1]: little or no phosphorylation was detected

B3: Y^198 plus Y^291: human BVR double mutant DQFMK and QKFCC (protein, UniProt P53004 3-296, looked up, variant Y198F Y291F)
Biliverdin reductase A: AEPERKFGVVVVGVGRAGSVRMRDLRNPHPSSAFLNLIGFVSRRELGSIDGVQQISLEDALSSQEVEVAYICSESSSHEDYIRQFLNAGKHVLVEYPMTLSLAAAQELWELAEQKGKVLHEEHVELLMEEFAFLKKEVVGKDLLKGSLLFTAGPLEEERFGFPAFSGISRLTWLVSLFGELSLVSATLEERKEDQFMKMTVCLETEKKSPLSWIEEKGPGLKRNRYLSFHFKSGSLENVPNVGVNKNIFLKDQNIFVQKLLGQFSEKELAAEKKRILHCLGLAEEIQKFCCSRK
BVR phosphorylation by IRK (mutant as substrate) [1]: little or no phosphorylation was detected
